Assay [1] has as its target T1, N-10 peptide (N-10 PSMGFR).
T1 construct: also called PSMGFR N-10
T1 peptide: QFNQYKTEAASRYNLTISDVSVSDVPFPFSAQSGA
Nature of the assay: peptide binding, told in text.

For assay [2], the target named is T2, PSMGFR peptide (Primary Sequence of the MUC1 Growth Factor Receptor).
T2 peptide: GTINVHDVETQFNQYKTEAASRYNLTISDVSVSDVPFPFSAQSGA
Nature of the assay: selection of clones on the immunizing peptide.

In assay [3] the target is T3, C-10 peptide (C-10 PSMGFR).
T3 construct: also called PSMGFR C-10
T3 peptide: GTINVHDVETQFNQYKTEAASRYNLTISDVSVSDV
As to the kind of experiment: binding to peptides (ELISA, FIG. 39). As for the experimental part:
(§1) All monoclonal antibodies were first selected based on their ability to bind to the immunizing peptide. To further elucidate the epitope within that peptide to which the antibody binds, antibodies were tested for their ability to bind to the PSMGFR peptide, the N−10 peptide or the C−10 peptide.

The target in assay [4] is T3, C-10 peptide (C-10 PSMGFR). Nature of the assay: ELISA on peptides.
Assay [5] deals with T4, PSMGFR N+9/C-9 peptide.
T4 peptide: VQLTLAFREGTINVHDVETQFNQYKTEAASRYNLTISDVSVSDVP
As to the kind of experiment: selection of clones on the immunizing peptide.

Assay [6] deals with T1, N-10 peptide (N-10 PSMGFR). Nature of the assay: peptide binding, told in legend.
Assay [7] deals with T5, PSMGFR N+20/C-27 peptide.
T5 construct: also called N+20/C-27 PSMGFR
T5 peptide: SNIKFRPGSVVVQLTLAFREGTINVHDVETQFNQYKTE
Nature of the assay: selection of clones on the immunizing peptide.

The target in assay [8] is T1, N-10 peptide (N-10 PSMGFR). As to the kind of experiment: ELISA on peptides (FIG. 39). As for the experimental part:
as §1

B1: 20A10 monoclonal anti-MUC1* antibody (antibody, V domains shown)
VH: EVMLVESGGGLVKPGGSLKLSCAASGFTFSTYAMSWIRQTPEKRLEWVASIGRAGSTYYSDSVKGRFTISRDNVRNILYLQMSSLRSEDTAMYYCARGPIYNDYDEFAYWGQGTLVTVSA
VL: NIMMTQSPSSLAVSAGEKVTMSCKSSQSVLYSSNQKNYLAWYQQKPGQSPKLLIYWASTRESGVPDRFTGSGSGTDFTLTISSVQAEDLAVYYCHQYLSSLTFGAGTKLELK
notes: Immunogen PSMGFR peptide; also called Antibody 20A10
Turning to B1, the binding result in assay [1] is given as “binds”; in assay [2], “binds”; in assay [3], “no binding”.

B2: 18G12 monoclonal anti-MUC1* antibody (antibody, V domains shown)
VH: QVQLQQSGAELVKPGASVKLSCKASGYTFTGYFLYWVKQRPGQGLEWIGGINPDNGGIDFNEKFRNKATLTVDKSSSTAYMQLSSLTSEDSAVYYCTLLIGNYWGQGTTLTVSS
VL: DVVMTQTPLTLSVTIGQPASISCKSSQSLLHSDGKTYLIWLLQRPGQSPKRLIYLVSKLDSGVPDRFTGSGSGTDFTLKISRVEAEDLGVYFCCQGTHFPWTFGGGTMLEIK
notes: Immunogen PSMGFR peptide; also called Antibody 18G12
Turning to B2, the binding result in assay [4] and in assay [2] was “binds” throughout.

B3: 28F9 monoclonal anti-MUC1* antibody (antibody, V domains shown)
VH: QVQLQQPGAELVQPGASVKLSCKASGYTFTGYFLYWVKQRPGHGLEWIGGIHPSNGDTDFNEKFKNKATLTVDISSSTAYMQLSSLTSEDSAVYYCTLLIGVYWGQGTTLTVSS
VL: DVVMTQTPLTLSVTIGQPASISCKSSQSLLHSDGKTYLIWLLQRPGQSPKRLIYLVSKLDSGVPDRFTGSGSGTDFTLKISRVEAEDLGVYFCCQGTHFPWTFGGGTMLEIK
notes: Anti-PSMGFR antibody; also called Antibody 28F9
Consider B3, for which the binding result in assay [4] and in assay [2] was “binds” each time.

B4: 3C5 monoclonal anti-MUC1* antibody (antibody, V domains shown)
VH: QIQLVQSGPELKKPGETVKISCKASGYTFTNYGMNWVKQAPGKGLKWMGWINTYTGKPTYADDFKGRFAFSLETSASTAYLQINNLKNEDTATYFCARGGLDGYYGYWGQGTTLTVSS
VL: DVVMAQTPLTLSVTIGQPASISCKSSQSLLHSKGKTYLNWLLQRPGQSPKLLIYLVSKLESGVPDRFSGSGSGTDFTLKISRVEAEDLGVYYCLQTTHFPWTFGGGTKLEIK
notes: Immunogen PSMGFR N+9/C-9 peptide; also called Antibody 3C5
Turning to B4, the binding result in assay [5] was “binds”.

B5: 25E6 monoclonal anti-MUC1* antibody (antibody, V domains shown)
VH: EVQLVESGGDLVKPGGSLKLSCAASGFTFSSYGMSWVRQTPDKRLEWVATISNGGRHTFYPDSVKGRFTISRDNAKNTLYLQMSSLKSEDTAMYLCVRQTGTEGWFAYWGQGTLVTVSA
VL: not shown
notes: Immunogen PSMGFR peptide; also called Antibody 25E6
With B5, the binding result in assay [6] and in assay [2] was “binds” throughout.

B6: 31A1 monoclonal anti-MUC1* antibody (antibody, V domains shown)
VH: QVQLQQSGAELAKPGASVKMSCKASGYTFTSYWMHWVKQRPGQGLEWIGYINPSTGYTEYNQKFKDKATLTADKSSSTAYMQLSSLTSEDSAVYYCARAYIDYWGQGTTLTVSS
VL: DVLMTQTPLSLPVSLGDQASFSCRSSQSIVHSNGNTYLEWYLQKPGQSPKLLIYKVSNRFSGVPDRFSGSGSGTDFTLKINRVEAEDLGVYYCFQVSHFPWTFGGGTKLEIK
notes: Immunogen PSMGFR N+20/C-27 peptide; also called Antibody 31A1
Turning to B6, the binding result in assay [7] is on record as “binds”.

B7: 39H5 monoclonal anti-MUC1* antibody (antibody, V domains shown)
VH: QIQLVQSGPELKKPGETVKISCKASGYTFTNYGMNWVKQAPGKGLKWMGWINTYTGEPTYVGDFKGRFAFSLETSASTAYLQINNLKNEDTATYFCVRGIHGYVDYWGQGTTLTVSS
VL: DVLMTQTPLSLPVSLGDQASISCRSSQSIVHRNGNTYLEWYLQKPGQSPKLLIYKVSNRFSGVPDRFSGSGSGTDFTLKISRVEAEDLGVYYCFQGSHLPWTFGGGTKLEIK
notes: Immunogen PSMGFR N+9/C-9 peptide; also called Antibody 39H5
On to B7, for which the binding result in assay [5] is reported as “binds”.

B8: 18B4 monoclonal anti-MUC1* antibody (antibody, V domains shown)
VH: EVKLEESGGGLVQPGGSMKLSCAASGFTFNDAWMDWVRQSPEKGLEWVAEIRSTANIHTTYYAESVQGRFTISRDDSKSSVYLQMNSLRAEDTGIYYCTPLLYGFAYWGQGTLVTVSA
VL: DVVMTQSPLSLPVSLGDQASISCRTSQSLVHSNGNTYLHWHLQKPGQSPKVLIYKVSSRFSGVPDRFSGSGSGTDFTLKISRVEAEDLGVYFCSQNTHVPYTFGGGTKLEIK
notes: Immunogen PSMGFR peptide; also called Antibody 18B4
For B8, the binding result in assay [4] was “binds”; in assay [2], “binds”; in assay [8] it was “no binding”.

B9: 32C1 monoclonal anti-MUC1* antibody (antibody, V domains shown)
VH: EVKLEESGGGLVQSGGSMKLSCVASGFTFSNYWMNWVRQSPEKGLEWVAEIRLKSNNYAIHYAESVKGRFTISRDDSKSSVYLQMNNLRAEDTGIYYCTRVPGLDAYWGQGTLVTVSA
VL: DVVMTQTPLSLPVSLGDQASISCRSSQSLVHSNGNTYLHWYLQKPGQSPKLLIYKVSNRFSGVPDRFSGSGSGTDFTLKISSVEAEDLGVYFCSQITHVPYTFGGGTNLEIK
notes: Immunogen PSMGFR N+20/C-27 peptide; also called Antibody 32C1
For B9, the binding result in assay [7] is “binds”.

B10: 29H1 monoclonal anti-MUC1* antibody (antibody, V domains shown)
VH: EVKLEESGGGLVQPGGSMKLSCAASGFTFSDAWMDWVRQSPEKGLEWVAEIRSKATNHATYYAESVKGRFTISRDDSKSSVYLQMNSLRAEDTGIYYCTPLLYGFAYWGQGTLVTVSA
VL: DVVMTQTPLSLPVSLGDQASISCRSGQSLVHSNGHTYLHWYLQKPGQSPRLLIYKVSNRFSGVPDRFSGSGSRADFTLKISRVEAEDLGVYFCSQTTHVPWTFGGGTKLEIK
notes: Immunogen PSMGFR N+20/C-27 peptide; also called Antibody 29H1
Take B10: the binding result in assay [7] is “binds”.

B11: 1E4 monoclonal anti-MUC1* antibody (antibody, V domains shown)
VH: QVQLQQSGAELVRPGSSVKISCKASGYAFSTYWMNWVKQRPGQGLEWIGQIYPGDSDTNYNGKFKGKATLTADKSSNTAYMQLSSLTSEDSAVFFCARGNHASMDYWGQGTSVTVSS
VL: DVVMTQTPLSLPVSLGDQASISCRSSQSLVHSNGNTYLHWYLQKPGQSPKLLIYKVSNRFSGVPDRFSGSGSGTDFTLKISRVEAEDLGVYFCSQKTHVPWTFGGGTKLEIK
notes: Immunogen PSMGFR N+20/C-27 peptide; also called Antibody 1E4
On to B11, for which, in assay [7], the binding result is reported as “binds”.
